Assay: soluble on expression in E. coli; label from the status in PepcDB or PDB records

Which “soluble on expression in E. coli” value does the source give for “TKAHRDAARRIAAESFVLLKNDNVTLRPGTPAEPLLPFNPKGNIAVIGPLADSRTNMPGTWSVAAVLDRCPSLVEGLKEMTAGKANILYAKGSNLISDASYEERATMFGRSLNRDNRTDEQLLNEALTVANQSDIIIAALGESSEMSGESSSRTDLNIPDVQQNLLKELLKTGKPVVLVLFTGRPLTLTWEQEHVPAILNVWFGGSEAAYAIGDALFGYVNPGGKLTMSFPKNVGQIPLYYAHKNTGRPLAQGKWFEKFRSNYLDVDNEPLYPFGYGLSYTTFSYGDIDLSR” here?
Its value is “not soluble”.

Which “soluble on expression in E. coli” value does the source give for “MGSDKIHHHHHHMPGFNSSPASEKSSLLRQHFPLVTIPEYNSWDPDIAYIQLEQAILPLLNQGVLLTGSSLGGFWAYQFACRYRQPCLLINPCMHPELSLQRYIGKVENFYSHEQGWLTEAHLGKYAAYRVNGQPSRLTVLHEQGDELIPYMESVVNFSGKAKLILPGGGHHRFARTDLIAACIRDMLPPEDAGHQKA” here?
The value was “not soluble”.

For “SRQETGGNLMSEPLLIARTPDTELFLLPGMANRHGLITGATGTGKTVTLQKLAESLSEIGVPVFMADVKGDLTGIAQAGTASEKLLTRLKNIGVNDWQPHANPVVVWDIFGEKGHTVRATVSDLGPLLLARLLNLNDVQSGVLNIIFRIADDQGLLLLDFKDLRAITQYIGDNAKSFQNQYGNISSASVGAIQRGLLSLEQQGAAHFFGEPMLDIKDWMRTDANGKGVINILSAEKLYQMPKLYAASLLWMLSELYEQLPEAGDLEKPKLVFFFDEAHLLFNDAPQVLLDKIEQVIRLIRSKGVGVWFVSQNPSDIPDNVFGQLGNRVQHALRAFTPKDQKAVKTAAQTMRANPAFDTEKAIQELGTGEALISFLDAKGSPSVVERAMVIAPCSRMGPVTEDERNGLINHSPVYGKYEDEVDRESAYEMLQKGFQASTEQQNNPPVKGKEVAVDDGILGGLKDILFGTTGPRGGKKDGVVQTMAKSAARQVTNQIVRGMLGSLLGGRKR”, which “soluble on expression in E. coli” value is on record?
The value was “not soluble”.

Which “soluble on expression in E. coli” value does the source give for “MGSDKIHHHHHHMKESLRILHINDLHSHFEAYPKIKRFFAEHSKTQREVLRFDIGDNVDKSHPLTDVSAGRVNVDLMNDLGIDFATIGNNEGIGLAKAEINQLYHKADFQVILGNLRDKKGRPTWAQPYVIYETKAGTKLALLAYTFPYYWTYVPNGWQVLDAISSLKKDLENPEVAAADFRILLSHLGIRLDEKIARQVPEIDLIIGAHTHHVFEEGEVVNGTYLAAAGRYGDHVGQIDLDFEDHSLTNIAIEAVPTSDLDSEKEDAAFVAHLFEEGEKLLAENLICKLSRQPSLKECADLVMEAMKKSAAADLAIINTGLVVEPFSQNLTKADLHKSLPHQMRLVKFQVTQTELLEICHDIFSQADLLANQQIRGMGFRGKQFGKVVTSGFTYKNGKIVYNNKAIGRKDKMSLVLVDQYYFAPYFNSLTSRKGQLLFPDLLRQTVEKYLRGDL” here?
The value was “not soluble”.

With “DTPEPPLHNFYCSKLLDLVFLLDGSSMLSEAEFEVLKAFVVGMMERLHISQKRIRVAVVEYHDGSRAYLELKARKRPSELRRITSQIKYTGSQVASTSEVLKYTLFQIFGKIDRPEASHITLLLTASQEPPRMARNLVRYVQGLKKKKVIVIPVGIGPHASLKQIRLIEKQAPENKAFLLSGVDELEQRRDEIVSYLCDLAPEAPAPT” as the sequence, how does the “soluble on expression in E. coli” value read?
The value was “soluble”.

Which “soluble on expression in E. coli” value does the source give for “MSLHEKKKENVPEWQHFDAAIFNKAKKEHKLVLLHLGANWCHWCHVMEEQTYTDPFVLELLNKSYIACKEDHDERQDLTSLYAAYGWPATIVFDADGNELLKEAGFISSDRFIALLKKLVKNPTPMPTDSVQIEPAVASDSSTQQALNTLKKKFYSSLDIEGGGFNYAQKYIDFETFEYAFNHSENDSILTKWLYNSVVNSAGLNDNVWGGVFQYSTHSDWNHLHYEKLLSIQARYIKMYCWYYKRFNDADALSHAESAAKYVQRFLDDPKGGFYNSQDADVTPGEKATEYFKLNNADRIKKGIPAIDKNSYTSDNAEMIEACIILSAATGNNTYLEKAVRCFDFIKKNNKTNNAYAHGSNYTNSISLKDNIAIVKSALLLYRATQDAAYKSEALRIIQEVAGTFYSKKGYMISFIGNSPIKGSYNITENIEACRLLNYCSHVFNEPKYKILAQTIFGFLTNENLVKTMSTEPGILSAYEELNTEPLKAVLMIKNGTELKTDFLNSSLSFPAFYFDNTIYTSTTIPSDKYELFDSFDKNFIVACTASYCSSPMFSKDGFEKFIYRRAFSTEGHHHHHH” here?
The value was “soluble”.

With “MASRVNIVQVQILDNPAMFVDKFKMEITFEVFEHLPHDLEWELVYVGSGTSRDFDQVLDSALVGPIPEGRHKFVFDAEHPDISKIPVEDIVGVSVLLLRCKYNDQEFINMGWFVANEYTDEELKENPPAKPLIEKLSRKIETEDLRVTTFPIRWTDEDPVAEPVDEEANKVFDEDDLMPLHDDGQDDDEEEEDDDETGPNTEEVDLNESFNERMANAHDGTEQKNGEESMEHDGASGDVEMGDKH” as the sequence, how does the “soluble on expression in E. coli” value read?
The value was “soluble”.

For “MGSDKIHHHHHHMRKISIVIPVYNTEKYLKLSVDSVLSQSYQDWELILVDDGSKDGSGAICDKYASEDSRIKVYHTVNQGVTAARGYGVEQSTGEWICFLDADDTLADDALQVMLGKSADCDIVIGNKRIVSGNDVTEEWMNQDDRQLQAVEFLDGLIRNKISQYITGRIFRRILFDNGTICIPRELIMAEDFIMNVQLGNKAKKIAVIRDMVYGYHVYGESVSHTFRTNLEYESRFCDCLFSALKTGGYYEEVKEAFTFQKVRALKSAFMAQQGRVNLRHPFLQEVRKEAKSIGLSRGWKLFLYLLPLKYIGYIFFRSLNK”, which “soluble on expression in E. coli” value is on record?
The value was “not soluble”.

With “MNHPNAPFQPPMDIDAVWQHSLIRVTDAFALPPIVLRVDDAIIGTLGNFSVSTGKAKAKKTFNVCALVAAALVNGQVLEYQASFPESKRNILYFDTEQSPYHCQLVLQRILALAELPLDQQPEHLLFSHLRSIASPEERRAIIRYAIYHTPNVGLVVIDGIRDLMHDINNSAEATNLMGDLMQWTGERNIHIQTVLHLNKGDDNARGHIGTELNNKTESVLLITKDNSDADRSVVSASIIRSKPFPPFAFRLTEVDNICLRELDTDFTAKDAQPFSYQELSGEEHRTALREAFGQACELGYGDLLKRLSSSYLGVSGRPYGQTKLKELLRFLVNKRMLVKASRGRYQFNPDFHY” as the sequence, how does the “soluble on expression in E. coli” value read?
The value was “not soluble”.

Which “soluble on expression in E. coli” value does the source give for “MSQVMEVVGGKWRLNVLWVINKYQSIRFNQLKREVNGITTIMLTRSLDILITNELVEKVDFQTLPLHVKYQLSSKGKSLMPLLKQINQWGKLYLLEHHHHHH” here?
Its value is “not soluble”.

For “MSLNKVITKKQTIPAFFKGNAPYIFAHRGGMALRPEQTQLAFDYAKQLGVDGFETDVRLTKDQQLIVFHDATVDRTTNGSGKVSAHTLAELKKLDAAYHFKDINGLTPYRGHAHTTILTFDELLKQYPDMYINVDLKDAPESYEGSIAPQIMFDTIAENQAFDRVLVTSFYKEQIVRFNKIAQGSVAIGASQQEVTEAFLKYHLLGGRYYQPLAQTFQMPTHFKGIDLTSSRFIKWLNDMNIIPGYYGVNSIDLMNDLYQKGAHTIVTDRPDLAQQFKQTIPNKEGHHHHHH”, which “soluble on expression in E. coli” value is on record?
Its value is “soluble”.

Which “soluble on expression in E. coli” value does the source give for “GMAQRSILVGQIWHEGHSFNPILTREKDFLFLRGEAVLEEARASSTALSGIVKTAEALGYRCVPSISARARPGGAIEQKVFDNIVDEFVQAARMQDFDAICLDLHGATLAEHTLDTEGYLLSRLREVVGNDIMISLALDLHAYLTPQMVEQATIITSFRTTPHADIEETGVRAMTLLDSLSNETRPPRAIYSLIPFLTRGNDETWSGPLAEIGAAADRWRARSDVVDLSIFNVHPFLDVPGYGQVVLAYDNGSGAAIDACRDLSDMLWKARDEFQEQLMSVDKALEIARTSRQLLALGDQGDRVMGAGPGDSPEIARVALEHFPGLKVAVPVYDPQAVRTAREAGENATVRMAVGGAFTHSVAPLERDWTVRKLCRARFTNIGPYMAGTEADFGDAAVLTCDAVTVIVTTMAPNVHDPAFYEAVGVPLASQQAVVARAANHYKLSFADIARTITVDTPGLTAFKPHQFPFTQARPFYPLDIVQWSFAPLECNKVG” here?
Its value is “soluble”.
